Results reported in publication PMC9036128, “An anti-ANGPTL3/8 antibody decreases circulating triglycerides by binding to a LPL-inhibitory leucine zipper-like motif” (Journal of Lipid Research, 2022).

T1: human ANGPTL3 (human, UniProt Q9Y5C1 17-460)
T1 construct: angiopoietin-like protein 3 (ANGPTL3), human; 460-amino acid protein, CCD 17-210, linker, FLD 241-460; also called free ANGPTL3; ANGPTL3 alone; source: generated as previously described (22, 44)
T1 sequence (looked up): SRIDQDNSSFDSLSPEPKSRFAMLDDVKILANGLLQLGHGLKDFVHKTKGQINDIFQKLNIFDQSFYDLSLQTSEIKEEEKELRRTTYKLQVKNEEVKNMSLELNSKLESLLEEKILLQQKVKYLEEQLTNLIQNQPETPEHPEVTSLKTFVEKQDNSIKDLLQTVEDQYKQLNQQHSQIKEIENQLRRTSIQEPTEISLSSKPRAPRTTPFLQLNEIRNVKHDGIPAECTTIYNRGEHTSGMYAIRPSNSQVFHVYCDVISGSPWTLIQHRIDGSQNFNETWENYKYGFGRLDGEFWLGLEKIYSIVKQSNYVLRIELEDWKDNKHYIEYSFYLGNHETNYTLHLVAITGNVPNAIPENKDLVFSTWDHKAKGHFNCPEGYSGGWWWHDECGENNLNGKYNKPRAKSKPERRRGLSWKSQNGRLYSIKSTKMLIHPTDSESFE

T2: ANGPTL8 cotransfected with ANGPTL3 and the anti-ANGPTL3/8 antibody Fab in CHO cells (UniProt Q6UXH0 22-198)
T2 construct: angiopoietin-like protein 8 (ANGPTL8); Used only for negative stain TEM; source: CHO cells, cotransfected with ANGPTL3 and an anti-ANGPTL3/8 antibody Fab
T2 sequence (looked up): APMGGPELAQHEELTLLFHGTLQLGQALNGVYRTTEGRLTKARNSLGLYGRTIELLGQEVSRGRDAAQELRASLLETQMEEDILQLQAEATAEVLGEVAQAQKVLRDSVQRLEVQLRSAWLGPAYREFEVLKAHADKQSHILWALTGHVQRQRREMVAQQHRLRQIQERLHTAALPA


Key:
human ANGPTL3 = molecular target: T1, human ANGPTL3; experiment: HDX-MS; purified ANGPTL3/8 complex (12 uM) against ANGPTL3 alone (15 uM) and ANGPTL8 alone (15 uM); pH 7.4, 10 mM sodium phosphate, 150 mM NaCl, 15 C; 10 s, 2 min, 10 min, 60 min; triplicate; settings: both partners purified
[1] = molecular target: T2, ANGPTL8 cotransfected with ANGPTL3 and …; experiment: negative stain transmission electron microscopy; ANGPTL3, ANGPTL8 and anti-ANGPTL3/8 antibody Fab cotransfected in CHO cells; sample diluted 100-fold into TBS, uranyl formate stain; 2D class averaging in three rounds
[2] = molecular target: the molecule itself; experiment: as above

Row | Binder | binding result (human ANGPTL3) | stoichiometry N [1] [ANGPTL3 per ANGPTL8] | stoichiometry N [2]
1 | human ANGPTL8 as it stands in the ANGPTL3/8 complex (HSA fusion partner removed) (natural protein, UniProt Q6UXH0 22-198, looked up, angiopoietin-like protein 8 (ANGPTL8), human; 198-amino acid protein; same expression construct as HIS-HSA-ANGPTL8; also called ANGPTL8 complexed with ANGPTL3; source: part of the ANGPTL3/8 complex generated as previously described (22, 44); HSA fusion partner removed by proteolysis; not shown: His, N-terminal, cleaved; HSA, N-terminal, cleaved) APMGGPELAQHEELTLLFHGTLQLGQALNGVYRTTEGRLTKARNSLGLYGRTIELLGQEVSRGRDAAQELRASLLETQMEEDILQLQAEATAEVLGEVAQAQKVLRDSVQRLEVQLRSAWLGPAYREFEVLKAHADKQSHILWALTGHVQRQRREMVAQQHRLRQIQERLHTAALPA | binds |  | 
2 | ANGPTL3 cotransfected with ANGPTL8 and the anti-ANGPTL3/8 antibody Fab in CHO cells (natural protein, UniProt Q9Y5C1 17-460, looked up, angiopoietin-like protein 3 (ANGPTL3); Used only for negative stain TEM; source: CHO cells, cotransfected with ANGPTL8 and an anti-ANGPTL3/8 antibody Fab) SRIDQDNSSFDSLSPEPKSRFAMLDDVKILANGLLQLGHGLKDFVHKTKGQINDIFQKLNIFDQSFYDLSLQTSEIKEEEKELRRTTYKLQVKNEEVKNMSLELNSKLESLLEEKILLQQKVKYLEEQLTNLIQNQPETPEHPEVTSLKTFVEKQDNSIKDLLQTVEDQYKQLNQQHSQIKEIENQLRRTSIQEPTEISLSSKPRAPRTTPFLQLNEIRNVKHDGIPAECTTIYNRGEHTSGMYAIRPSNSQVFHVYCDVISGSPWTLIQHRIDGSQNFNETWENYKYGFGRLDGEFWLGLEKIYSIVKQSNYVLRIELEDWKDNKHYIEYSFYLGNHETNYTLHLVAITGNVPNAIPENKDLVFSTWDHKAKGHFNCPEGYSGGWWWHDECGENNLNGKYNKPRAKSKPERRRGLSWKSQNGRLYSIKSTKMLIHPTDSESFE |  | 3 | 3
